Source: publication PMC9376891

Molecular target: Rae1(31-368)-Nup98(157-213) heterodimer (human), P78406
Test: ITC

## DEMDTHDPNQLRY (modifications not checked) [VSV M NTE peptide]
  Kd: 117 µM
